From patent USRE49583E1, “Inducible expression systems” (priority 2005, dated 2023)
Entries after “also recorded” stand apart in the source; their conditions may differ.

Tested on: chromosomally integrated CMV-7tetO luciferase reporter in HeLa X1/6 cells
Experiment: rtTA activity assay, HeLa X1/6 cells with integrated CMV-7tetO luciferase reporter (Example 1, FIG. 2-3, 5, 14, 15)
Type: cell-based
Details: for basal / background activity in the absence of inducer: no dox or other effector; for rtTA activation by minocycline (Mc): 0-10000 ng/ml Mc
Excerpt: To test whether this rtTA optimization reflects a specific adaptation to the viral LTR-2ΔtetO promoter, we assayed rtTA activity with a reporter gene construct in which luciferase expression is under the control of a minimal CMV promoter coupled to an array of seven tetO elements. […] Thus, the observed mutations in rtTA are not virus-specific adaptations, but are general improvements of the Tet-on system. We also assayed rtTA activity in HeLa X1/6 cells that contain chromosomally integrated copies of the CMV-7tetO luciferase reporter construct (FIG. 2C). In these cells, the evolved rtTAs show a similar pattern of activity as with episomal reporter gene constructs in C33A cells. Thus, these mutations improve rtTA activity independent of the type of promoter and the episomal or chromosomal status of the target gene.
The V10 variant needs only 44 ng/ml dox to reach this activity level, which reflects a 23-fold higher dox-sensitivity than the wild-type rtTA.
rtTA activity assay. Two firefly luciferase reporter constructs with different promoter configurations were used. pLTR-2ΔtetO-luc contains the LTR-2ΔtetO promoter derived from the HIV-rtTA molecular clone (Marzio et al. 2001; Marzio et al. 2002). pCMV-7tetO-luc, previously named pUHC13-3 (Gossen et al. 1992), contains seven tetO elements located upstream of a minimal CMV promoter. The plasmid pRL-CMV (PROMEGA®, Madison, Wis., USA), in which the expression of Renilla luciferase is controlled by the CMV promoter, was used as an internal control to allow correction for differences in transfection efficiency.
C33A and HeLa X1/6 cells were grown in 2-cm^2 wells to 60% confluency and transfected by the calcium phosphate precipitation method (Das et al. 1999). C33A cells were transfected with 0.4 ng pCMV-rtTA (wild-type or mutant), 20 ng pLTR-2ΔtetO-luc or pCMV-7tetO-luc, 0.5 ng pRL-CMV, and 980 ng pBluescript as carrier DNA. HeLa X1/6 cells were transfected with 8 ng pCMV-rtTA, 2.5 ng pRL-CMV, and 990 ng pBluescript. The amount of the DNA constructs was optimized for each cell type to keep rtTA-mediated transactivation within the linear range and to avoid squelching of transcription factors. Cells were cultured for 48 hours in the presence of different concentrations of dox, Tc or Mc, and lysed in Passive Lysis Buffer (PROMEGA®). Firefly and Renilla luciferase activities were determined with the dual-luciferase reporter assay (PROMEGA®). The activity of the rtTA variants was calculated as the ratio of the firefly and Renilla luciferase activities, and corrected for between-session variation.
FIG. 2. Novel rtTA variants show increased activity and dox-sensitivity in different Tet systems. The transcriptional activity of rtTA variants was measured in C33A cells transfected with a plasmid carrying the firefly luciferase reporter gene under the control of the viral LTR-2ΔtetO promoter (LTR-2ΔtetO; A) or under the control of a minimal CMV-derived promoter coupled to seven tetO elements (CMV7-tetO; B). Furthermore, rtTA activity was measured in HeLa X1/6 cells (Baron et al. 1997) that contain a chromosomally integrated copy of the CMV-7tetO reporter construct (CMV7tetO-integrated; C, D). Variants V1 to V10 were compared in all three Tet systems (panels A-C) and variants V11 to V18 in the cells with the integrated reporter (panel D). Cells were transfected with the indicated rtTA expression plasmid or pBluescript as a negative control, and a plasmid constitutively expressing Renilla luciferase to correct for differences in transfection efficiency. Cells were cultured in the presence of different dox concentrations (0-1000 ng/ml). The ratio of the firefly and Renilla luciferase activities measured 2 days after transfection reflects the rtTA activity. All values were related to the wild-type (wt) rtTA activity at 1000 ng/ml dox, which was arbitrarily set at 100%. In (C and D), average values of three transfections are shown with error bars indicating the standard deviation.
FIG. 3. […]

B1: V9I F67S C68R G138D F86Y: rtTA variant with these amino acid substitutions (protein)
chain: MSRLDKSKIINSALELLNGVGIEGLTTRKLAQKLGVEQPTLYWHVKNKRALLDALPIEMLDRHHTHSRPLEGESWQDFLRNNAKSYRCALLSHRDGAKVHLGTRPTEKQYETLENQLAFLCQQGFSLENALYALSAVDHFTLGCVLEEQEHQVAKEERETPTTDSMPPLLRQAIELFDRQGAEPAFLFGLELIICGLEKQLKCESGGPADALDDFDLDMLPADALDDFDLDMLPADALDDFDLDMLPG
  basal / background activity in the absence of inducer: no or low basal activity

B2: E37Q F67S F86Y A209T: rtTA variant with these amino acid substitutions (protein)
chain: MSRLDKSKVINSALELLNGVGIEGLTTRKLAQKLGVQQPTLYWHVKNKRALLDALPIEMLDRHHTHSCPLEGESWQDFLRNNAKSYRCALLSHRDGAKVHLGTRPTEKQYETLENQLAFLCQQGFSLENALYALSAVGHFTLGCVLEEQEHQVAKEERETPTTDSMPPLLRQAIELFDRQGAEPAFLFGLELIICGLEKQLKCESGGPTDALDDFDLDMLPADALDDFDLDMLPADALDDFDLDMLPG
Listed as F67S E37Q F86Y A209T
  rtTA activation by minocycline (Mc): particularly sensitive for minocycline; also recorded: very sensitive for minocycline
  basal / background activity in the absence of inducer: low background activity
  basal / background activity in the absence of inducer: no or low basal activity

B3: V9I F67S C68R G138D F86Y A209T: rtTA variant with these amino acid substitutions (protein)
chain: MSRLDKSKIINSALELLNGVGIEGLTTRKLAQKLGVEQPTLYWHVKNKRALLDALPIEMLDRHHTHSRPLEGESWQDFLRNNAKSYRCALLSHRDGAKVHLGTRPTEKQYETLENQLAFLCQQGFSLENALYALSAVDHFTLGCVLEEQEHQVAKEERETPTTDSMPPLLRQAIELFDRQGAEPAFLFGLELIICGLEKQLKCESGGPTDALDDFDLDMLPADALDDFDLDMLPADALDDFDLDMLPG
  rtTA activation by minocycline (Mc): particularly sensitive for minocycline
  basal / background activity in the absence of inducer: no or low basal activity
0-10000 ng/ml Tc
  rtTA activation by tetracycline (Tc): particularly sensitive for tetracycline

B4: V9I F67S R171K F86Y: rtTA variant with these amino acid substitutions (protein)
chain: MSRLDKSKIINSALELLNGVGIEGLTTRKLAQKLGVEQPTLYWHVKNKRALLDALPIEMLDRHHTHSCPLEGESWQDFLRNNAKSYRCALLSHRDGAKVHLGTRPTEKQYETLENQLAFLCQQGFSLENALYALSAVGHFTLGCVLEEQEHQVAKEERETPTTDSMPPLLKQAIELFDRQGAEPAFLFGLELIICGLEKQLKCESGGPADALDDFDLDMLPADALDDFDLDMLPADALDDFDLDMLPG
  basal / background activity in the absence of inducer: no or low basal activity

B5: E37Q F67S F86Y: rtTA variant with these amino acid substitutions (protein)
chain: MSRLDKSKVINSALELLNGVGIEGLTTRKLAQKLGVQQPTLYWHVKNKRALLDALPIEMLDRHHTHSCPLEGESWQDFLRNNAKSYRCALLSHRDGAKVHLGTRPTEKQYETLENQLAFLCQQGFSLENALYALSAVGHFTLGCVLEEQEHQVAKEERETPTTDSMPPLLRQAIELFDRQGAEPAFLFGLELIICGLEKQLKCESGGPADALDDFDLDMLPADALDDFDLDMLPADALDDFDLDMLPG
  basal / background activity in the absence of inducer: no or low basal activity

B6: V9I F67S G138D F86Y: rtTA variant with these amino acid substitutions (protein)
chain: MSRLDKSKIINSALELLNGVGIEGLTTRKLAQKLGVEQPTLYWHVKNKRALLDALPIEMLDRHHTHSCPLEGESWQDFLRNNAKSYRCALLSHRDGAKVHLGTRPTEKQYETLENQLAFLCQQGFSLENALYALSAVDHFTLGCVLEEQEHQVAKEERETPTTDSMPPLLRQAIELFDRQGAEPAFLFGLELIICGLEKQLKCESGGPADALDDFDLDMLPADALDDFDLDMLPADALDDFDLDMLPG
  basal / background activity in the absence of inducer: no or low basal activity

B7: V9I F67S E157K F86Y: rtTA variant with these amino acid substitutions (protein)
chain: MSRLDKSKIINSALELLNGVGIEGLTTRKLAQKLGVEQPTLYWHVKNKRALLDALPIEMLDRHHTHSCPLEGESWQDFLRNNAKSYRCALLSHRDGAKVHLGTRPTEKQYETLENQLAFLCQQGFSLENALYALSAVGHFTLGCVLEEQEHQVAKEKRETPTTDSMPPLLRQAIELFDRQGAEPAFLFGLELIICGLEKQLKCESGGPADALDDFDLDMLPADALDDFDLDMLPADALDDFDLDMLPG
  basal / background activity in the absence of inducer: no or low basal activity

B8: V9I C68R G138D F86Y: rtTA variant with these amino acid substitutions (protein)
chain: MSRLDKSKIINSALELLNGVGIEGLTTRKLAQKLGVEQPTLYWHVKNKRALLDALPIEMLDRHHTHFRPLEGESWQDFLRNNAKSYRCALLSHRDGAKVHLGTRPTEKQYETLENQLAFLCQQGFSLENALYALSAVDHFTLGCVLEEQEHQVAKEERETPTTDSMPPLLRQAIELFDRQGAEPAFLFGLELIICGLEKQLKCESGGPADALDDFDLDMLPADALDDFDLDMLPADALDDFDLDMLPG
  basal / background activity in the absence of inducer: no or low basal activity
